Assay results reported in article PMC3298681 (Molecular Cell, 2011).

Biological target: the molecule itself

B1: DgcB (CC1850), purified (enzyme, Caulobacter crescentus, UniProt Q9A776 1-353, looked up)
chain: MSDVETTLRGPEAYKIASRALELMERHQVWPTALNFELWTHYVADPNGALARELTRLISLGEPMTELVSEELAATFLPKARLNEQIRDAGDILSKELEAVSKAIQNAQKSNAAFGQELAGASKSLDTHTDVASIKAVVGSIAEATRRVHKENQSLEARLADSTAEVERLREHLEQVRRDATTDGLTNLANRKAFDDELDRACAEAEEGGTTICLAVLDIDHFKGFNDTWGHQTGDQVIRYVASVIGRVAAPPRFAARYGGEEFAMIFPREAASVVATTLEEIRVEVSSRMLKRRSTNEDLGAITVSSGFAERKPGESGHSVMERADAALYASKRGGRNRVTAAESMPGAANAA
- stoichiometry N: 2
